Patent publication US20240084039A1

Biological target: pre-existing anti-drug antibodies (ADA) present in human sera
Assay: ELISA pre-existing ADA binding assay, confirmatory setup, test molecule coated, 20 human sera

Binder	% positives of total tested serum samples [%]	No of positive serum samples above 30% CCP (serum samples)
PRO2905 (scFv) scFv: DIQMTQSPASLSASVGDRVTITCQASQSIGTYLAWYQQKPGKPPKLLIYRAFILASGVPSRFSGSGSGTDFTLTISSLQPEDFATYYCQSNFYSDSTTIGPNAFGTGTKVTVLGGGGGSGGGGSGGGGSGGGGSEVQLVESGGGRVQPGGSLRLSCAASGFSFNSDYWIYWVRQAPGKGLEWIASIYGGSSGNTQYASWAQGRFTISRDNSKNTVYLQMNSLRAEDTAVYFCARGYVDYGGATDLWGQGTQVTVSS	20	7
PRO2922 (scFv) scFv: DIQMTQSPSSLSASVGDRVTITCQASESIYSSLAWYQQKPGKAPKLLIYLASTLASGVPSRFSGSGSGTDFTLTISSLQPEDFATYYCQSTDYTTSTHRNSFGTGTKVTVLGGGGGSGGGGSGGGGSGGGGSEVQLVESGGGRVQPGGSLRLSCAASGFSFSTTYYMCWVRQAPGKGLEWIGCTNTASSVRTYYATWAKGRFTISRDNSKNTVYLQMNSLRAEDTAVYYCARDMGFADYALNLWGQGTLVTVSS	10	2
PRO2920 (scFv) scFv: DIQMTQSPSSLSASVGDRVTITCQASESIYSSLAWYQQKPGKAPKLLIYLASTLASGVPSRFSGSGSGTDFTLTISSLQPEDFATYYCQSTDYTTSTHRNSFGTGTKVTVLGGGGGSGGGGSGGGGSGGGGSEVQLVESGGGRVQPGGSLRLSCAASGFSFSTTYYMCWVRQAPGKGLEWIGCTNTASSVRTYYATWAKGRFTISRDNSKNTVYLQMNSLRAEDTAVYYCARDMGFADYALNLWGQGTQVTVSS	10	2
PRO2918 (scFv) scFv: DIQMTQSPSSLSASVGDRVTITCQASESIYSSLAWYQQKPGKAPKLLIYLASTLASGVPSRFSGSGSGTDFTLTISSLQPEDFATYYCQSTDYTTSTHRNSFGTGTKVTVLGGGGGSGGGGSGGGGSGGGGSEVQLVESGGGRVQPGGSLRLSCAASGFSFSTTYYMCWVRQAPGKGLEWIGCTNTASSVRTYYATWAKGRFTISRDNSKNTVYLQMNSLRAEDTATYYCARDMGFADYALNLWGQGTQVTVSS	25	5
PRO2919 (scFv) scFv: DIQMTQSPSSLSASVGDRVTITCQASESIYSSLAWYQQKPGKAPKLLIYLASTLASGVPSRFSGSGSGTDFTLTISSLQPEDFATYYCQSTDYTTSTHRNSFGTGTKVTVLGGGGGSGGGGSGGGGSGGGGSEVQLVESGGGRVQPGGSLRLSCAASGFSFSTTYYMCWVRQAPGKGLEWIGCTNTASSVRTYYATWAKGRFTISRDNSKNTVYLQMNSLRAEDTATYYCARDMGFADYALNLWGQGTLVTVSS	5	1

Now from value to binder:

% positives of total tested serum samples [%]	No of positive serum samples above 30% CCP (serum samples)	Binder
15	3	PRO2907 (scFv) scFv: DIQMTQSPASLSASVGDRVTITCQASQSIGTYLAWYQQKPGKPPKLLIYRAFILASGVPSRFSGSGSGTDFTLTISSLQPEDFATYYCQSNFYSDSTTIGPNAFGTGTKVTVLGGGGGSGGGGSGGGGSGGGGSEVQLVESGGGRVQPGGSLRLSCAASGFSFNSDYWIYWVRQAPGKGLEWIASIYGGSSGNTQYASWAQGRFTISRDNSKNTVYLQMNSLRAEDTAVYFCARGYVDYGGATDLWGQGTLVTVSS
30	6	PRO2903 (scFv) scFv: DIQMTQSPASLSASVGDRVTITCQASQSIGTYLAWYQQKPGKPPKLLIYRAFILASGVPSRFSGSGSGTDFTLTISSLQPEDFATYYCQSNFYSDSTTIGPNAFGTGTKVTVLGGGGGSGGGGSGGGGSGGGGSEVQLVESGGGRVQPGGSLRLSCAASGFSFNSDYWIYWVRQAPGKGLEWIASIYGGSSGNTQYASWAQGRFTISRDNSKNTVYLQMNSLRAEDTATYFCARGYVDYGGATDLWGQGTQVTVSS
